The values below come from publication PMC9780223, “Structural insights into the covalent regulation of PAPP-A activity by proMBP and STC2” (Cell Discovery, 2022).

The term Kd denotes the concentration at which binding is half-saturated. One may read the stoichiometry N as the number of molecules, sites or subunits per partner or assembly.

The chains are these.
B1: proform of eosinophil major basic protein (proMBP), endogenous, from pregnant human plasma (natural protein, human (endogenous in pregnant plasma), UniProt P13727 17-222, looked up)
chain: LHLRSETSTFETPLGAKTLPEDEETPEQEMEETPCRELEEEEEWGSGSEDASKKDGAVESISVPDMVDKNLTCPEEEDTVKVVGIPGCQTCRYLLVRSLQTFSQAWFTCRRCYRGNLVSIHNFNINYRIQCSVSALNQGQVWIGGRITGSGRCRRFQWVDGSRWNFAYWAAHQPWSRGGHCVALCTRGGHWRRAHCLRRLPFICSY
notes: proform of eosinophil major basic protein, human, encoded by PRG2; only residues 88-222 traced in the map, residues 1-87 invisible; Secreted proform; the signal peptide should be absent (surmise); Model built on PDB 1H8U; also called PM; PRG2; source: purified from pregnant human plasma as the PAPP-A·proMBP complex (PEG6000, SOURCE-15Q, MonoS, Superose-6)
B2: recombinant proMBP (modulator protein) (natural protein, UniProt P13727 17-222, looked up)
chain: B1 chain
notes: proform of eosinophil major basic protein, encoded by PRG2; construct not described; source: co-expressed with PAPP-A for the cleavage assay
B3: pregnancy-associated plasma protein A (PAPP-A), endogenous, from pregnant human plasma (enzyme, human (endogenous in pregnant plasma), UniProt Q13219 82-1627, looked up)
chain: EARGATEEPSPPSRALYFSGRGEQLRLRADLELPRDAFTLQVWLRAEGGQRSPAVITGLYDKCSYISRDRGWVVGIHTISDQDNKDPRYFFSLKTDRARQVTTINAHRSYLPGQWVYLAATYDGQFMKLYVNGAQVATSGEQVGGIFSPLTQKCKVLMLGGSALNHNYRGYIEHFSLWKVARTQREILSDMETHGAHTALPQLLLQENWDNVKHAWSPMKDGSSPKVEFSNAHGFLLDTSLEPPLCGQTLCDNTEVIASYNQLSSFRQPKVVRYRVVNLYEDDHKNPTVTREQVDFQHHQLAEAFKQYNISWELDVLEVSNSSLRRRLILANCDISKIGDENCDPECNHTLTGHDGGDCRHLRHPAFVKKQHNGVCDMDCNYERFNFDGGECCDPEITNVTQTCFDPDSPHRAYLDVNELKNILKLDGSTHLNIFFAKSSEEELAGVATWPWDKEALMHLGGIVLNPSFYGMPGHTHTMIHEIGHSLGLYHVFRGISEIQSCSDPCMETEPSFETGDLCNDTNPAPKHKSCGDPGPGNDTCGFHSFFNTPYNNFMSYADDDCTDSFTPNQVARMHCYLDLVYQGWQPSRKPAPVALAPQVLGHTTDSVTLEWFPPIDGHFFERELGSACHLCLEGRILVQYASNASSPMPCSPSGHWSPREAEGHPDVEQPCKSSVRTWSPNSAVNPHTVPPACPEPQGCYLELEFLYPLVPESLTIWVTFVSTDWDSSGAVNDIKLLAVSGKNISLGPQNVFCDVPLTIRLWDVGEEVYGIQIYTLDEHLEIDAAMLTSTADTPLCLQCKPLKYKVVRDPPLQMDVASILHLNRKFVDMDLNLGSVYQYWVITISGTEESEPSPAVTYIHGSGYCGDGIIQKDQGEQCDDMNKINGDGCSLFCRQEVSFNCIDEPSRCYFHDGDGVCEEFEQKTSIKDCGVYTPQGFLDQWASNASVSHQDQQCPGWVIIGQPAASQVCRTKVIDLSEGISQHAWYPCTISYPYSQLAQTTFWLRAYFSQPMVAAAVIVHLVTDGTYYGDQKQETISVQLLDTKDQSHDLGLHVLSCRNNPLIIPVVHDLSQPFYHSQAVRVSFSSPLVAISGVALRSFDNFDPVTLSSCQRGETYSPAEQSCVHFACEKTDCPELAVENASLNCSSSDRYHGAQCTVSCRTGYVLQIRRDDELIKSQTGPSVTVTCTEGKWNKQVACEPVDCSIPDHHQVYAASFSCPEGTTFGSQCSFQCRHPAQLKGNNSLLTCMEDGLWSFPEALCELMCLAPPPVPNADLQTARCRENKHKVGSFCKYKCKPGYHVPGSSRKSKKRAFKTQCTQDGSWQEGACVPVTCDPPPPKFHGLYQCTNGFQFNSECRIKCEDSDASQGLGSNVIHCRKDGTWNGSFHVCQEMQGQCSVPNELNSNLKLQCPDGYAIGSECATSCLDHNSESIILPMNVTVRDIPHWLNPTRVERVVCTAGLKWYPHPALIHCVKGCEPFMGDNYCDAINNRAFCNYDGGDCCTSTVKTKKVTPFPMSCDLQGDCACRDPQAQEHSRKDLRGYSHG
modifications: glycosylation sites assigned in the density (positions not given)
notes: pregnancy-associated plasma protein A, human, full-length mature PAPP-A, Arg1-Gly1547; numbers count on: the mature protein; source: purified from pregnant human plasma as the PAPP-A·proMBP complex (PEG6000, SOURCE-15Q, MonoS, Superose-6)

The target in data set [1] is B3. Kind of data set: cryo-EM structure; PAPP-A·proMBP complex purified from pregnant human plasma, 0.2 mg/mL, in PBS pH 7.4; 2:2 map with C2 symmetry and half map after symmetry expansion. To be noted: both partners purified.
Data set [2] has as its target purified recombinant PAPP-A free of STC2 (apo PAPP-A) (human, UniProt Q13219 82-1627, fluorescently labeled with Protein Labeling Kit RED-NHS (in MST)). Description: MST; RED-NHS labeled PAPP-A (24 nM, mixed with an equal volume of ligand), ligand serially diluted; PBS with 0.05% Tween-20, room temperature, 30 min; 1:1 binding mode; n = 3. The following applies: both partners purified.

Data set [3] concerns the molecule itself. Kind of data set: cryo-EM structure; PAPP-A·proMBP complex purified from pregnant human plasma, 0.2 mg/mL, in PBS pH 7.4; 2:2 map with C2 symmetry and half map after symmetry expansion.

On to B1, for which the binding result in data set [1] is “binds”.

B2: the Kd in data set [2] was ~6.15 µM.

For B3, the “stoichiometry N” value in data set [3] was determined as 2.
